Target: T1, His-BaeR (Acinetobacter baumannii ATCC 17978) (UniProt A0ABX6CJ55)
T1 sequence: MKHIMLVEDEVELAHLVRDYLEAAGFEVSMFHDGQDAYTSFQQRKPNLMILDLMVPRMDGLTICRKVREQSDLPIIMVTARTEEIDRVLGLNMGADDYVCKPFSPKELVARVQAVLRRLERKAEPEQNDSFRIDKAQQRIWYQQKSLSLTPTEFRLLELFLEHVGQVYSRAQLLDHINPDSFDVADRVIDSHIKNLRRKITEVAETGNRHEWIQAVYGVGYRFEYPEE
Test: EMSA

| Sequence | binding |
| --- | --- |
| GCCTTCACGTTTTAAATAATTTTCAATAATGTCGCCAATATCGTAGTCATCTTCTACCACAAGAATAACTTTATCTTGGCAATCAAAAGAAAAAGAATGATCAAACATAGAAAATCTGGCTATAGAAAGTGCTTCAACTCATCATACGCTAAATTATCCGTATTTCTCCACACTTACTCCACACTTTAGTGATTATCCCTACACACTCATCAAAAATAATACGAACATCAAAAACTCACTAGG (double strand) [adeA promoter region (243 bp)] | no binding |
| TTTCTGAGCAGCAGCAGCTTGCTGTTTCTCATCGGAGCCTTTGCTACAACCAACAAGCGCGATACTTGTTGCTAATGCGCAAGCAGTAAGGGCTGGTGCCCAAAGCTTAGCCGACATCATTGTTCCACCTCGTTTAGATAAAAT (double strand) [adeI promoter region (144 bp)] | no binding |
